Measurements: patent publication US20250361274A1, “PEPTIDE AND PEPTIDE-CONTAINING AGENT” (PEPTIDREAM INC., priority 2022, published 2025)
Numbered stars: 1 amine (or outer) side, 2 acyl side, 3 side chain; on linkers, the order of the positions; unused ones are H or OH. Bridge positions count the residues as written; N and C are the ends. Square brackets hold non-standard residues; d marks the D form. Ends that are not written are not given here. KCOpipzaa = N6-(4-(carboxymethyl)piperazine-1-carbonyl)-L-lysine, O=C(NCCCC[C@H](N[*:1])C(=O)[*:2])N1CCN(CC(=O)[*:3])CC1; Cha4tH = (S)-2-amino-3-((1r,4S)-4-hydroxycyclohexyl)propanoic acid, O=C([C@H](C[C@H]1CC[C@H](O[*:3])CC1)N[*:1])[*:2]; 3Pal(6-Ph) = N[C@@H](Cc1ccc(-c2ccccc2)nc1)C(=O)O; Phe(4-COOH) = N[C@@H](Cc1ccc(C(=O)O)cc1)C(=O)O; Bip = N[C@@H](Cc1ccc(-c2ccccc2)cc1)C(=O)O; 3Pal(6-NH2) = Nc1ccc(C[C@H](N)C(=O)O)cn1; Phe(4-F) = N[C@@H](Cc1ccc(F)cc1)C(=O)O; Hyp = O=C(O)[C@@H]1C[C@@H](O)CN1; NMeF = CN[C@@H](Cc1ccccc1)C(=O)O; 4Pal = N[C@@H](Cc1ccncc1)C(=O)O; Cha = N[C@@H](CC1CCCCC1)C(=O)O; Abu = CC[C@H](N)C(=O)O

How the values were obtained:
BMP4 = target: T1, BMP4 (Homo sapiens, UniProt P12644); assay: BMP4 signal transduction inhibitory activity: SMAD1 phosphorylation by BMP4 stimulus, AlphaLISA SureFire, A549 cells; type: cell-based; conditions: for aLISA BMP4: A549 cells
T1 sequence (P12644 293-408): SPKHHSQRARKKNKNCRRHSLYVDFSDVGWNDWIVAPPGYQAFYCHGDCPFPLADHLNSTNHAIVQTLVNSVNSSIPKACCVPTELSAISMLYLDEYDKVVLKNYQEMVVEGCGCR

BMP7 = target: T2, BMP7 (Homo sapiens, UniProt P18075); assay: BMP7 signal transduction inhibitory activity: SMAD1 phosphorylation by BMP7 stimulus, A549 cells; type: cell-based; conditions: for aLISA BMP7: A549 cells
T2 sequence (P18075 293-431): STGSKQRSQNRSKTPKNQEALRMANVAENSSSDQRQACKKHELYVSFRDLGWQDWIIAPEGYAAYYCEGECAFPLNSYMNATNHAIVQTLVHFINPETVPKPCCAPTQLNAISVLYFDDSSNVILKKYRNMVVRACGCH
Outline: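 Cell line A549; stimulus BMP7 10 nM; endpoint pSMAD1. Peptide doses: three concentrations (1–1,000 nM range) or 8 × 1/3 dilutions from 100/1,000 nM.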

[1] = SMAD1 phosphorylation, BMP4 0.2 nM, peptide conc. in assay 0.2, 2, 20 nM
[2] = SMAD1 phosphorylation, BMP7 10 nM, peptide conc. in assay 1, 10, 100 nM

For “340 (FG[NMeF]G[Bip]GDD[Cha]Q[NMeF]LHCG-NH2; not fully specified (N-terminus, bridges)) [compound 340]”, the “aLISA BMP4 (0.2 nM) % inh” value (BMP4; [1]) was “ND (the inhibitory activity was less than 30% at the maximum concentration evaluated)” and the “aLISA BMP7 (10 nM) % inh” value (BMP7; [2]) was “D (showed less than 30% of inhibitory activity in 10 nM-addition zone and showed 30% or more of inhibitory activity in 100 nM-addition zone)”.

In the case of “353 (FG[NMeF]G[Bip]GDD[Cha]A[NMeF]LSCG-NH2; not fully specified (N-terminus, bridges); also: cyclic peptide, ring closure not given here) [compound 353]”, the “aLISA BMP4 (0.2 nM) % inh” value (BMP4; [1]) is reported as “ND (the inhibitory activity was less than 30% at the maximum concentration evaluated)” and the “aLISA BMP7 (10 nM) % inh” value (BMP7; [2]) is reported as “D (showed less than 30% of inhibitory activity in 10 nM-addition zone and showed 30% or more of inhibitory activity in 100 nM-addition zone)”.

In the case of “288 (ERV[Phe(4-COOH)][Cha4tH][KCOpipzaa]R[3Pal(6-Ph)][KCOpipzaa]Y[Hyp][Bip][4Pal][Phe(4-COOH)][Phe(4-COOH)]SCG-NH2; not fully specified (N-terminus, bridges); also: cyclic peptide, ring not given here) [compound 288]”, the “aLIZA BMP4 (0.2 nM) % inh” value (BMP4; BMP4 0.2 nM stimulus, peptide conc. in assay 0.02, 0.2, 2 nM, class symbols) is reported as “B (showed less than 30% of inhibitory activity in 0.02 nM-addition zone and showed 30% or more of inhibitory activity in 0.2 nM-addition zone)” and the “aLIZA BMP7 (10 nM) % inh” value (BMP7; BMP7 10 nM stimulus, peptide conc. in assay 100, 300, 1000 nM, class symbols) is reported as “F (showed 30% or more of inhibitory activity in 100 nM-addition zone)”.

With “150 ({CH2CO}-ERVYVDR[Bip]PYV[Bip]Y[Phe(4-COOH)][3Pal(6-NH2)]SCG-NH2; thioether N-17; not fully specified) [compound 150]” the “aLISA BMP4” value (BMP4; inhibition of SMAD1 phosphorylation by BMP4 stimulus, peptides of Synthesis 1, classes D-F, ND) was “E (showed less than 50% of inhibitory activity in 0.2 nM-addition zone and showed 50% or more of inhibitory activity in 2 nM-addition zone)” and the “aLISA BMP7” value (BMP7; inhibition of SMAD1 phosphorylation by BMP7 stimulus, peptides of Synthesis 1, classes E, F, ND) was “E (showed 50% or more of inhibitory activity in a zone to which the peptide was added in an amount of 10 nM)”.

In the case of “92 ({CH2CO}-EKVYVDK[Bip]YYV[Bip][Phe(4-F)][Phe(4-COOH)][4Pal]SCG-NH2; thioether N-17; not fully specified) [compound 92]”, the “aLISA BMP4” value (BMP4; inhibition of SMAD1 phosphorylation by BMP4 stimulus, peptides of Synthesis 2, classes A-C, ND) is reported as “C (showed an inhibitory activity of less than 50% in 0.2 nM-addition zone and showed an inhibitory activity of 50% or more in 2 nM-addition zone were defined as B or C)” and the “aLISA BMP7” value (BMP7; inhibition of SMAD1 phosphorylation by BMP7 stimulus, peptides of Synthesis 2, classes A-D, ND) is reported as “C (showed less than 50% of inhibitory activity in 10 nM-addition zone and showed 50% or more of inhibitory activity in 100 nM-addition zone)”.

For “383 (FG[NMeF]GYGDD[Cha]A[NMeF]LHCG-NH2; not fully specified) [compound 383]”, the “aLISA BMP4 (0.2 nM) % inh” value (BMP4; BMP4 0.2 nM stimulus, peptide conc. in assay 2, 20, 200 nM) was “ND (the inhibitory activity was less than 30% at the maximum concentration evaluated)” and the “aLISA BMP7 (10 nM) % inh” value (BMP7; BMP7 10 nM stimulus, peptide conc. in assay 10, 30, 90 nM) was “F (showed less than 30% of inhibitory activity in 10 nM-addition zone and showed 30% or more of inhibitory activity in 30 nM-addition zone)”.

For “350 (FG[NMeF]G[Bip]GDD[Cha]A[NMeF]L[Abu]CG-NH2; not fully specified (N-terminus, bridges)) [compound 350]”, the “aLISA BMP4 (0.2 nM) % inh” value (BMP4; [1]) was “ND (the inhibitory activity was less than 30% at the maximum concentration evaluated)” and the “aLISA BMP7 (10 nM) % inh” value (BMP7; [2]) was “D (showed less than 30% of inhibitory activity in 10 nM-addition zone and showed 30% or more of inhibitory activity in 100 nM-addition zone)”.

In the case of “38 ({CH2CO}-A[KCOpipzaa]VYVDK[Bip]PYP[Bip]Y[Phe(4-COOH)][Phe(4-COOH)]SCG-NH2; thioether N-17; not fully specified) [compound 38]”, the “aLISA BMP4” value (BMP4; SMAD1 phosphorylation, peptides of Synthesis 2, peptide 0.02, 0.2, 2 nM) is reported as “A (showed an inhibitory activity of 50% or more in a zone to which the peptide was added to in an amount of 0.2 nM)” and the “aLISA BMP7” value (BMP7; 10 nM BMP7, peptides of Synthesis 2, peptide 1, 10, 100 nM) is reported as “ND (the inhibitory activity was less than 30% at the maximum concentration evaluated)”.
